Source: patent publication US20250019412A1 (ALPINE IMMUNE SCIENCES, published 2025)
Changes are numbered by the printed parent chain. Numbers in names are those of the source. Like-named read-outs stand apart in the source and are kept apart here.

B1: TACI 13-118, with K77E/F78Y/Y102D, Fc fusion (Fc fusion)
chain: SRVDQEERFPQGLWTGVAMRSCPEEQYWDPLLGTCMSCKTICNHQSQRTCAAFCRSLSCRKEQGEYYDHLLRDCISCASICGQHPKQCADFCENKLRSPVNLPPELEPKSSDKTHTCPPCPAPEAEGAPSVFLFPPKPKDTLMISRTPEVTCVVVDVSHEDPEVKFNWYVDGVEVHNAKTKPREEQYNSTYRVVSVLTVLHQDWLNGKEYKCKVSNKALPAPIEKTISKAKGQPREPQVYTLPPSRDELTKNQVSLTCLVKGFYPSDIAVEWESNGQPENNYKTTPPVLDSDGSFFLYSKLTVDKSRWQQGNVFSCSVMHEALHNHYTQKSLSLSPG
B2: 7 TACI CRD1/CRD2-Fc (Fc fusion)
variant TACI domain - linker - Fc fusion chain: VAMRSCPEEQYWDPLLGTCMSCKTICNHQSQRTCAAFCRSLSCRKEQGKFYDHLLRDCISCASICGQHPKQCDYFCENKLRSGSGGGGSEPKSSDKTHTCPPCPAPEAEGAPSVFLFPPKPKDTLMISRTPEVTCVVVDVSHEDPEVKFNWYVDGVEVHNAKTKPREEQYNSTYRVVSVLTVLHQDWLNGKEYKCKVSNKALPAPIEKTISKAKGQPREPQVYTLPPSRDELTKNQVSLTCLVKGFYPSDIAVEWESNGQPENNYKTTPPVLDSDGSFFLYSKLTVDKSRWQQGNVFSCSVMHEALHNHYTQKSLSLSPG
B3: 26 TACI CRD2-Fc (Fc fusion)
chain: SLSCRKEQGEYYDHLLRDCISCASICGQHPKQCADFCENKLRSGSGGGGSEPKSSDKTHTCPPCPAPEAEGAPSVFLFPPKPKDTLMISRTPEVTCVVVDVSHEDPEVKFNWYVDGVEVHNAKTKPREEQYNSTYRVVSVLTVLHQDWLNGKEYKCKVSNKALPAPIEKTISKAKGQPREPQVYTLPPSRDELTKNQVSLTCLVKGFYPSDIAVEWESNGQPENNYKTTPPVLDSDGSFFLYSKLTVDKSRWQQGNVFSCSVMHEALHNHYTQKSLSLSPG
B4: 13 TACI CRD2-Fc (Fc fusion)
chain: B3 chain with E10K, Y11F, D35Y

What was measured:
Assay in all cases: cell-based or functional assay
[1] = biological target: T1, recombinant human APRIL (human, UniProt O75888 105-250, limits assumed)
T1 sequence (looked up): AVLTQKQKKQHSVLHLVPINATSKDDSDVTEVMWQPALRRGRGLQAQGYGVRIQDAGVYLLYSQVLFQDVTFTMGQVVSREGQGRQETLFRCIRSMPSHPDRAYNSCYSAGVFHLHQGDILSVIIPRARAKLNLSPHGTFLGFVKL

[2] = biological target: T2, recombinant human BAFF (human, UniProt Q9Y275 134-285)
[3] = biological target: T1, recombinant human APRIL; remark: listed apart in the source
[4] = biological target: T2, recombinant human BAFF; remark: listed apart in the source
[5] = biological target: T1, recombinant human APRIL; remark: listed apart in the source
[6] = biological target: T2, recombinant human BAFF; remark: listed apart in the source
[7] = biological target: T1, recombinant human APRIL; remark: listed apart in the source
[8] = biological target: T2, recombinant human BAFF; remark: listed apart in the source
[9] = biological target: T1, recombinant human APRIL; remark: listed apart in the source
[10] = biological target: T2, recombinant human BAFF; remark: listed apart in the source
[11] = biological target: recombinant mouse BAFF (mouse, UniProt Q9WU72 127-309)
[12] = biological target: T3, recombinant mouse APRIL (mouse, UniProt Q9D777 96-241, limits assumed)
T3 sequence (looked up): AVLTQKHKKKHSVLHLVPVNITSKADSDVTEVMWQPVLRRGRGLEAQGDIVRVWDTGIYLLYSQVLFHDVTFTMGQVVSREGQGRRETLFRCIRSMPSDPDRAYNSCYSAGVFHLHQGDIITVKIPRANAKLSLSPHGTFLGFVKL

Sequence of recombinant mouse BAFF (Q9WU72 127-309 limits assumed): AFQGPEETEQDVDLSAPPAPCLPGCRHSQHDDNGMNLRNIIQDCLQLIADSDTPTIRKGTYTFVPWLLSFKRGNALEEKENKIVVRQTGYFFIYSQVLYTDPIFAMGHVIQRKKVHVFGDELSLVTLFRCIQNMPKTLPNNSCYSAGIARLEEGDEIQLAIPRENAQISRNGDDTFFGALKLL

Row | Binder | APRIL IC50 (pM) [1] [pM] | APRIL IC50 (ΔWT) [1] | BAFF IC50 (pM) [2] [pM] | BAFF IC50 (ΔWT) [2] | IC50 (nM) APRIL [3] [nM] | IC50 APRIL (Δ TACI 30-110) [3] | IC50 (nM) BAFF [4] [nM] | IC50 BAFF (Δ TACI 30-110) [4] | IC50 (read off the curve): blockade of human APRIL signalling via TACI (NF-κB luciferase reporter, Jurkat/NF-κB/TACI cells) [5] [nM] | IC50 (read off the curve): blockade of human BAFF signalling via TACI (NF-κB luciferase reporter, Jurkat/NF-κB/TACI cells) [6] [nM] | IC50 (nM) APRIL [7] [nM] | IC50 APRIL (Δ TACI 30-110-Fc) [7] | IC50 (nM) BAFF [8] [nM] | IC50 BAFF (Δ TACI 30-110-Fc) [8] | IC50 (read off the curve): blockade of human APRIL signalling via TACI (NF-κB luciferase reporter, Jurkat/NF-κB/TACI cells) [9] [nM] | IC50 (read off the curve): blockade of human BAFF signalling via TACI (NF-κB luciferase reporter, Jurkat/NF-κB/TACI cells) [10] [nM] | IC50 (read off the curve): blockade of mouse BAFF signalling via TACI (NF-κB luciferase reporter, Jurkat/NF-κB/TACI cells) [11] [nM] | IC50 (read off the curve): blockade of mouse APRIL signalling via TACI (NF-κB luciferase reporter, Jurkat/NF-κB/TACI cells) [12] [nM]
1 | B1 | 13200 | 1.07 fold of WT TACI (68-110)-Fc | 1990 | 1.07 fold of WT TACI (68-110)-Fc | 848 | 0.2 fold of TACI 30-110 | 2050 | 0.46 fold of TACI 30-110 | – | – | – | – | – | – | – | – | – | –
2 | B2 | – | – | – | – | – | – | – | – | ~3 | ~2 | – | – | – | – | – | – | – | –
3 | B3 | 9210 | 0.75 fold of WT TACI (68-110)-Fc | 1550 | 0.84 fold of WT TACI (68-110)-Fc | 214 | 0.05 fold of TACI 30-110 | 1270 | 0.28 fold of TACI 30-110 | – | ~0.6 | 179 | 0.05 fold of TACI 30-110-Fc | 1220 | 0.21 fold of TACI 30-110-Fc | ~0.6 | ~2 | – | –
4 | B4 | 12300 | 1 fold of WT TACI (68-110)-Fc | 1850 | 1 fold of WT TACI (68-110)-Fc | – | – | – | – | ~5 | ~2 | 369 | 0.1 fold of TACI 30-110-Fc | 1330 | 0.23 fold of TACI 30-110-Fc | – | ~3 | ~5 | ~0.7
